In the experiment the target is murine 103 gene product, transmembrane form, on the cell surface (murine) (UniProt P14719). The experiment is described as follows: flow cytometry; digoxigenin-labelled 3E10 with anti-Dig-PE against CD4-FITC, on CD4+ T cells cultured with IL-4 + anti-IL-12 (TH2 conditions). This is the middle of three panels, between 5.2 % (after primary restimulation) and 41 % (after tertiary restimulation). [C) TH2, middle panel].

Among the data in patent US20020058800A1 are % of cells in the upper right quadrant (3E10+ CD4+) values, retold here.

UniProt P14719, sequence (P14719 24-567): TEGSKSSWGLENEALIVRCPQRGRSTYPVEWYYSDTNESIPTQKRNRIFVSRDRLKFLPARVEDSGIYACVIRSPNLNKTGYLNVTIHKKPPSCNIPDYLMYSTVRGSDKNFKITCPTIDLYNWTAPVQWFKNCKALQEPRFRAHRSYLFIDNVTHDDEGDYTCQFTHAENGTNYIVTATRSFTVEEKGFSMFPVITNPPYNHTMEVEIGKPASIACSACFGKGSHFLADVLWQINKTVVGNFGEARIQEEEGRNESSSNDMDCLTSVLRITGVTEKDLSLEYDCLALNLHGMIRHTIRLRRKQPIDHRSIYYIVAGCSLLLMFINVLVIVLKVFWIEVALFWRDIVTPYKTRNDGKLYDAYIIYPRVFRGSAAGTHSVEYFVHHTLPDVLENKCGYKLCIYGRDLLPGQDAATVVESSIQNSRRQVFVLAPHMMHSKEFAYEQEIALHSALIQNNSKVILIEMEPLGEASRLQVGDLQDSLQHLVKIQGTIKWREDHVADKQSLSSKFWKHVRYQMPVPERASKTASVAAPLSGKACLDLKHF

On to 3E10 mAb (antibody), for which the % of cells in the upper right quadrant (3E10+ CD4+) is 11.1%.
